Measurements from the supplement of paper PMC11908140.

B1: library; numbered along this chain (parent)
chain: MRKPRAAVGSGHRKQAASQEGRQKHAKNNSQAKPSACDGLARQPEEVVLQASVSSYHLFRDVAEVTAFRGSLLSWYDQEKRDLPWRRRAEDEMDLDRRAYAVWVSEVMLQQTQVATVINYYTGWMQKWPTLQDLASASLEEVNQLWAGLGYYSRGRRLQEGARKVVEELGGHMPRTAETLQQLLPGVGRYTAGAIASIAFGQATGVVDGNVARVLCRVRAIGADPSSTLVSQQLWGLAQQLVDPARPGDFNQAAMELGATVCTPQRPLCSQCPVESLCRARQRVEQEQLLASGSLSGSPDVEECAPNTGQCHLCLPPSEPWDQTLGVVNFPRKASRKPPREESSATCVLEQPGALGAQILLVQRPNSGLLAGLWEFPSVTWEPSEQLQRKALLQELQRWAGPLPATHLRHLGEVVHTFSHIKLTYQVYGLALEGQTPVTTVPPGARWLTQEEFHTAAVSTAMKKVFRVYQGQQPGTCMGSKRSQVSSPCSRKKPRMGQQVLDNFFRSHISTDAHSLNSAAQ

Variants of: B1
Assay: 8OG:A repair function score (normalized; synonymous = 0, nonsense = -1) (normalized log-likelihood score); higher = more repair activity (WT-like)
Conditions: with 8OG:A DNA repair reporter (GFP) in HEK-293 MUTYH KO cells
In short: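 After 72 h, viable mCherry+ cells were split into GFP+ (repair) and GFP− bins in three replicates per tile. These cells were MUTYH knockout HEK-293 cells holding lentiviral MUTYH cDNA NNN codon-scan libraries, kept in 10 pg/ml doxycycline and co-transfected with mCherry plus an 8OG:A GFP repair reporter. Sequencing of tile amplicons gave per-tile Rosace fitness scores, normalized into a repair function score anchored on synonymous and nonsense distributions. Synonymous medians were fixed at 0, nonsense at -1, and variants under 300 counts per million at the start were removed.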
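Further: cells sorted at 72 h after reporter transfection.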

8OG:A repair function score, by site and new letter:
A400: K -0.458, R -0.432, T -0.0197, S -0.189, N -0.913, Q -0.0826, I -0.319, H 0.179, D -0.752, E -0.727, F 0.262, L -0.241, M 0.54, V -0.246, C -0.215, P -0.723, G -0.0159
Q397: R -0.206, G -0.363, A -0.314, H -0.717, K -0.304, W 0.284, Y -0.0393, S -0.159, I -0.624, D -0.0883, P -0.645, E -0.364, M -0.301, C -0.496, V 0.0994, F 0.0272, L -0.101, T -0.463
L396: S -0.52, D -1.33, Q -0.673, P -0.766, F -0.431, Y -1.21, I -0.113, C -0.199, N -0.969, R -0.992, K -1.03, E -1.07, T -0.534, V -0.026, M -0.451, H -0.886, A -0.329, W -0.581, G -0.426
W399: I -0.15, P -0.724, M -0.301, F -0.284, S -0.232, T -0.296, E -0.679, D -0.666, K -0.616, C 0.313, R -0.289, G -0.541, N -0.463, A -0.229, H -0.291, Y 0.509, Q -0.108, L 0.1, V -0.167
L393: F -0.244, R 0.00361, S -0.405, M 0.297, I 0.0907, D -0.369, Y -0.503, V -0.37, E -0.395, K -0.0987, C -0.00132, P -0.792, N -1.03, A -0.295, T -0.383, W -0.266, Q 0.0615, G -0.22, H 0.25
Q394: K -0.158, G 0.266, S -0.0073, F -0.00248, N 0.483, I -0.343, C -0.273, M -0.148, V -0.209, H 0.21, R -0.0703, T -0.314, A 0.04, Y -0.129, E 0.261, W -0.387, D 0.0938, L -0.0272, P -0.467
R398: N -0.285, T -0.326, F 0.214, W -0.973, D -0.249, Y 0.174, V -0.2, A 0.0255, M 0.0969, E -0.407, I -0.416, G -0.102, L -0.263, H 0.0204, S -0.426, Q -0.525, P -0.556, K -0.0169, C -0.0446
L392: K -1.03, M -0.171, C -0.389, D -0.872, E -1.11, Y -0.624, G -0.896, S -1.04, V -0.289, W -1.27, F -0.647, I 0.0377, T -0.777, H -0.963, Q -0.839, N -1.52, P -1.09, R -1.02
E395: M -0.253, R -0.122, Q -0.276, H -0.214, W -0.193, T -0.194, S 0.0493, Y -0.0134, K -0.345, N -0.302, D -0.291, P -0.546, F -0.476, A -0.162, G -0.277, I -0.133, C -0.217, V -0.0171, L -0.23
